Assay results from publication PMC8431534.

Target: Myc-tagged PTK7 (Xenopus protein tyrosine kinase 7, full length) (Xenopus)
Test: co-IP; HEK293 cells co-transfected with Myc-tagged PTK7 and GFP-tagged constructs; immunoprecipitation with anti-Myc, Dynabeads Protein G, Western blot (Figure 5B)

- quantity co-precipitated with full-length PTK7 in respect to input, densitometry, relative to PTK7 = 1 (relative to PTK7 = 1): 2.6
Substance: ΔkPTK7-GFP (Xenopus Ptk7 with the kinase domain deleted, GFP-tagged) (receptor)
